Publication PMC12483538

Target: SenDRT9 reverse transcriptase (SenRT), affinity tag cleaved, in complex with its ncRNA (Salmonella enterica)
Experiment: cryo-EM structure; 2.5 uM tag-cleaved DRT9 RT-ncRNA complex (hexamer) on Quantifoil grids; D3 symmetry imposed, 2.59 A

stoichiometry N: 6
Substance: SenDRT9 reverse transcriptase (SenRT), affinity tag cleaved, in complex with its ncRNA (enzyme)
